Assay results as given in the supplement of paper PMC10065799, “High-throughput profiling of sequence recognition by tyrosine kinases and SH2 domains using bacterial peptide display” (eLife, 2023).

What was measured:
Grb2 SH2 = Grb2 SH2 (UniProt P62993); assay: SH2 binding enrichment of the phosphorylated peptide, bacterial display (enrichment ratio); higher = better substrate or ligand; peptides without Tyr show the background
SHP2-C SH2 = assay: as above
c-Src SH2 = assay: as above
AncSZ = assay: phosphorylation enrichment, bacterial display (enrichment ratio); higher = better substrate or ligand; peptides without Tyr show the background
FGFR1 = FGFR1 (UniProt P11362); assay: as above
Fes = Fes (UniProt P07332); assay: as above
Sequence of Fes (P07332 whole entry, looked up): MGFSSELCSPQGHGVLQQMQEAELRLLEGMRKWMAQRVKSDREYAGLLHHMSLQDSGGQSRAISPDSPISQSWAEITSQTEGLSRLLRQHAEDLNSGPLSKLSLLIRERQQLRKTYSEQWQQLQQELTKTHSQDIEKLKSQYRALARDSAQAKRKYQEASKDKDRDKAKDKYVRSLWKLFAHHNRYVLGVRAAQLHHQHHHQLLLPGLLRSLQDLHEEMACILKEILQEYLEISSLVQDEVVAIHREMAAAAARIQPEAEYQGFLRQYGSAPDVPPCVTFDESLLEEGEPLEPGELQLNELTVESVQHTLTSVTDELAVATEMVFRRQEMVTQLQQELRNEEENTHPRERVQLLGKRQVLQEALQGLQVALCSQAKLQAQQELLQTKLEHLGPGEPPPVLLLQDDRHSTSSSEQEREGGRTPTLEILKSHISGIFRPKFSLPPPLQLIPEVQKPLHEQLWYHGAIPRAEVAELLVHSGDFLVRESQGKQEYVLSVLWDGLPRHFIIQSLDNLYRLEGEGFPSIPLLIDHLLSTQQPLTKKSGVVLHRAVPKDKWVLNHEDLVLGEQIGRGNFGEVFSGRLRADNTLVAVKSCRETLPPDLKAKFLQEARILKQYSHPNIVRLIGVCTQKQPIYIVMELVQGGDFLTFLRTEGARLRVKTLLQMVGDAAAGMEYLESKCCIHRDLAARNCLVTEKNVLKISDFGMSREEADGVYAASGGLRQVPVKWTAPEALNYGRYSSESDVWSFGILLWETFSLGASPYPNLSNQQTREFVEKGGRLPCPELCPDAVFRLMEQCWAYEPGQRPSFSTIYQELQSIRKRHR

EPHB2 = EPHB2 (UniProt P29323); assay: as above
Fer (mouse) = assay: as above
EPHB1 = EPHB1 (UniProt P54762); assay: as above
FGFR3 = FGFR3 (UniProt P22607); assay: as above
Sequence of FGFR3 (P22607 whole entry, looked up): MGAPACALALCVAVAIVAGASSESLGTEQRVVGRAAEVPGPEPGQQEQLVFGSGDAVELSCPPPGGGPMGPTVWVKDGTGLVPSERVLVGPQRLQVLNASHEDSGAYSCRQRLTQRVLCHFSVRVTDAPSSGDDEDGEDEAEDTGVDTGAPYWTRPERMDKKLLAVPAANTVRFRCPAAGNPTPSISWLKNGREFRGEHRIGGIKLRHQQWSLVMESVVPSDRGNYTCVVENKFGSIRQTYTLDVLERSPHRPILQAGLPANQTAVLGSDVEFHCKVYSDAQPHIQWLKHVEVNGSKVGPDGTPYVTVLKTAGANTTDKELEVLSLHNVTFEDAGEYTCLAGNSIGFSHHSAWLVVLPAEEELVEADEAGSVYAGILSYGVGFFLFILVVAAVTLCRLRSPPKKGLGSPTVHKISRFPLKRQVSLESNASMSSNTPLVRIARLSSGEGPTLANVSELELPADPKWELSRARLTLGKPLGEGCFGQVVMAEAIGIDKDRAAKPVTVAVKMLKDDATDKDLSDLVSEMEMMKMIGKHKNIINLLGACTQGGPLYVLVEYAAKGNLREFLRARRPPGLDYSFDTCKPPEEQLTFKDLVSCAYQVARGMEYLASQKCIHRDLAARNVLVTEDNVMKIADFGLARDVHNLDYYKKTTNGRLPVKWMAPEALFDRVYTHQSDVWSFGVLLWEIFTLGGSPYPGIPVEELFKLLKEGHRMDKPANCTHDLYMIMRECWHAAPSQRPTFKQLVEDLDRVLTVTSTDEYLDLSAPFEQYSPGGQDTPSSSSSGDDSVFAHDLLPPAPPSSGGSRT

MERTK = MERTK (UniProt Q12866); assay: as above
Sequence of MERTK (Q12866 whole entry, looked up): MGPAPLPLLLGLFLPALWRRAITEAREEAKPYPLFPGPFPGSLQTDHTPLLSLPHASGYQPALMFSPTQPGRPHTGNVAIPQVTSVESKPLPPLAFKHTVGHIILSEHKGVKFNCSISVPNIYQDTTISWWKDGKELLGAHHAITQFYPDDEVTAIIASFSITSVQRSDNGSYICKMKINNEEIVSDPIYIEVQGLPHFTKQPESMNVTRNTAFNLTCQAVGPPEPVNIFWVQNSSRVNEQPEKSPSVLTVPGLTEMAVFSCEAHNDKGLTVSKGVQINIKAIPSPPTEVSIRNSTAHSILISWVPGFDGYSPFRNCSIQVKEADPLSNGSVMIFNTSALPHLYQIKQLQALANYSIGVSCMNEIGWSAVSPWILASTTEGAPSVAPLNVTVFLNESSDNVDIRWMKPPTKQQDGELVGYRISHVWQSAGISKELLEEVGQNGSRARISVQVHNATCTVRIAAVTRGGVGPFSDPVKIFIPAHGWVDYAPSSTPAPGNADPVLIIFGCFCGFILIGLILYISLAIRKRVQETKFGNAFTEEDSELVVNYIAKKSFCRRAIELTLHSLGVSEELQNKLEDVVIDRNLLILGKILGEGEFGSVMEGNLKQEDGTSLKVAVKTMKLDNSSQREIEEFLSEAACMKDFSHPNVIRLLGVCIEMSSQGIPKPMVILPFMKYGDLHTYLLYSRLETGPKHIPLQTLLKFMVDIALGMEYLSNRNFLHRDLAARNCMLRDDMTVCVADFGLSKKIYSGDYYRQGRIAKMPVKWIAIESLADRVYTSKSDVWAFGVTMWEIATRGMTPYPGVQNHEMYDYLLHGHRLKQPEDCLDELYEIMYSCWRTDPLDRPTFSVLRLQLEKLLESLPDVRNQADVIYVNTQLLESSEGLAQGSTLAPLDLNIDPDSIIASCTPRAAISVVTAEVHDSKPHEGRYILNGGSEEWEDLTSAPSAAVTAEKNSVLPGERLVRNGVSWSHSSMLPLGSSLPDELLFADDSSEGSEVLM

c-Src = assay: as above
Fyn = Fyn (UniProt P06241); assay: as above
Sequence of Fyn (P06241 whole entry, looked up): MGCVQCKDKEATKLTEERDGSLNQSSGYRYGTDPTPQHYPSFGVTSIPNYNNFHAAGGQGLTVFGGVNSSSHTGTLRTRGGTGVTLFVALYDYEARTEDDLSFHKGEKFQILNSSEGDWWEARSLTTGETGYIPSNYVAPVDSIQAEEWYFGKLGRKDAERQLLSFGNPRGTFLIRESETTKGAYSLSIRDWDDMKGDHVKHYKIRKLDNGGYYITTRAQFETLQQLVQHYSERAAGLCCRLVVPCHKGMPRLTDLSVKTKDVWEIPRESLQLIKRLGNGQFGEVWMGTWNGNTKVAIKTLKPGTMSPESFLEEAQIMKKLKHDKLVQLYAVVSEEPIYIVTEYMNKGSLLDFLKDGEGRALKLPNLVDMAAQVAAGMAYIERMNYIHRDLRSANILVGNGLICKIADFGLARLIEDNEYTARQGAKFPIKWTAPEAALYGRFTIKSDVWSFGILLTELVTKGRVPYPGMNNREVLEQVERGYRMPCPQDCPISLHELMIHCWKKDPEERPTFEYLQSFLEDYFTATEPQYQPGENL

Jak2 = Jak2 (UniProt O60674); assay: as above
Sequence of Jak2 (O60674 whole entry, looked up): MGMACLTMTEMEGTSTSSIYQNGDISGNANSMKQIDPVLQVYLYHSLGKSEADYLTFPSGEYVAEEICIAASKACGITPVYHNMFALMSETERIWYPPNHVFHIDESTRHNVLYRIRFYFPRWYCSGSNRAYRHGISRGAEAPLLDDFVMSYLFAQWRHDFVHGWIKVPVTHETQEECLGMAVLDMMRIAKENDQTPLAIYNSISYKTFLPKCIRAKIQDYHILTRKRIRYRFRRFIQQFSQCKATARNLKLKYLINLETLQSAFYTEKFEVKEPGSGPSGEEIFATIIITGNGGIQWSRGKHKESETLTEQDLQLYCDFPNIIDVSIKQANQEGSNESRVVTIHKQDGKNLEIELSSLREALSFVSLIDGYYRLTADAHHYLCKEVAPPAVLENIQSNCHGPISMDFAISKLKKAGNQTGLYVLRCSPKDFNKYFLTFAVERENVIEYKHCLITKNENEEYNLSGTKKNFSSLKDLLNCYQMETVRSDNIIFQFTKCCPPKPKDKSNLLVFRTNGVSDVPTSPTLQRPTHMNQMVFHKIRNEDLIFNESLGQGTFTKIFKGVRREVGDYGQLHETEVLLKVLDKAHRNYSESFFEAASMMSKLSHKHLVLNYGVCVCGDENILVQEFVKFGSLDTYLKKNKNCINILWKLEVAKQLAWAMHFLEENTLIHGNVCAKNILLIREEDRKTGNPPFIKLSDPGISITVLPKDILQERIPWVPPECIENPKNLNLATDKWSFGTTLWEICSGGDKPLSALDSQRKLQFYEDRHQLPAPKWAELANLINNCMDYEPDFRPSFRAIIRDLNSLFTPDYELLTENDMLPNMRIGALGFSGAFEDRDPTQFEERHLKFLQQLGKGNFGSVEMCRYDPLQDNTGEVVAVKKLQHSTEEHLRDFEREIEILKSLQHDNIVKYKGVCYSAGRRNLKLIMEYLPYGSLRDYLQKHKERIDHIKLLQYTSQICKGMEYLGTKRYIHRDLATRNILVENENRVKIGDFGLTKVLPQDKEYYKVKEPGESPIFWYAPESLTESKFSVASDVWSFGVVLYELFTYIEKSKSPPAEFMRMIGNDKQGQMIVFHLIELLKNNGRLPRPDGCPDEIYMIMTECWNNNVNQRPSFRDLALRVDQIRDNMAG

c-Abl (mouse) = assay: as above
Hck = Hck (UniProt P08631); assay: as above
Sequence of Hck (P08631 whole entry, looked up, the tested form may be a part): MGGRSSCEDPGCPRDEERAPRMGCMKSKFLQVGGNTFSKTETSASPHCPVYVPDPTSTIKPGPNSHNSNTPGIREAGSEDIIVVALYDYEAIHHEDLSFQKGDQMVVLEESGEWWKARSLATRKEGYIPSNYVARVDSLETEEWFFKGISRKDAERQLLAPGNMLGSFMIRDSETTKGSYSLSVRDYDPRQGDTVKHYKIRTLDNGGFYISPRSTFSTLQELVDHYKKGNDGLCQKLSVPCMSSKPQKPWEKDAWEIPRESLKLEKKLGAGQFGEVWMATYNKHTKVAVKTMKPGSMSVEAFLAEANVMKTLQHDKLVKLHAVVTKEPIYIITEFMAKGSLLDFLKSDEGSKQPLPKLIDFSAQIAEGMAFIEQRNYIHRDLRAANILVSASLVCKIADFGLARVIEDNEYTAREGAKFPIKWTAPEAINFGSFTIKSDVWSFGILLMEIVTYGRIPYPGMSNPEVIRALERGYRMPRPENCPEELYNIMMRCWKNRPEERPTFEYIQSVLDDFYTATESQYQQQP
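For SH2 binding enrichment of the phosphorylated peptide, bacterial display in this document: peptide library displayed on the E. coli surface as eCPX fusions, selected cells deep-sequenced, score is each peptide's frequency after selection divided by its frequency in the input.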
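For phosphorylation enrichment, bacterial display in this document: 11-residue human phosphosite peptides and single-mutation variants displayed on the E. coli surface, counted by deep sequencing, each peptide's frequency after selection divided by its frequency in the unselected input library; frequency after pTyr selection over input frequency; kinase dosed for 20-30% of maximal phosphorylation in three min.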

Sequence of Grb2 SH2 (P62993 whole entry, looked up): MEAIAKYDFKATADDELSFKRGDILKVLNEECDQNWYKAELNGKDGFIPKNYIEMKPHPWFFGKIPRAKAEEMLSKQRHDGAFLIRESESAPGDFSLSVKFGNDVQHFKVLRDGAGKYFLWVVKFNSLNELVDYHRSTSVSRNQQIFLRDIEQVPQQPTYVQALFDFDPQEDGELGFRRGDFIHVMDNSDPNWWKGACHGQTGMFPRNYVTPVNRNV

| Sequence | SH2 binding enrichment (Grb2 SH2) | SH2 binding enrichment (SHP2-C SH2) | SH2 binding enrichment (c-Src SH2) | phosphorylation enrichment (AncSZ) | phosphorylation enrichment (FGFR1) | phosphorylation enrichment (Fes) | phosphorylation enrichment (EPHB2) | phosphorylation enrichment (Fer (mouse)) | phosphorylation enrichment (EPHB1) | phosphorylation enrichment (FGFR3) | phosphorylation enrichment (MERTK) | phosphorylation enrichment (c-Src) | phosphorylation enrichment (Fyn) | phosphorylation enrichment (Jak2) | phosphorylation enrichment (c-Abl (mouse)) | phosphorylation enrichment (Hck) |
| --- | --- | --- | --- | --- | --- | --- | --- | --- | --- | --- | --- | --- | --- | --- | --- | --- |
| LKETGYVVERP [BCLAF1_Y466] | 0.862 | 0.68 | 0.501 | 0.768 | 0.443 | 0.807 | 0.278 | 0.321 | 0.494 | 0.609 | 0.438 | 0.411 | 0.434 | 0.553 | 0.469 | 0.399 |
| LKGQVYILGLE [ASS1_Y359_R363L] | 0.935 | 1.02 | 0.597 | 1.37 | 0.467 | 1.99 | 0.658 | 0.664 | 0.971 | 0.961 | 0.518 | 0.633 | 0.49 | 1.23 | 0.759 | 0.985 |
| LKLKAYRFSIS [LCT_Y974_V971L] | 0.673 | 0.763 | 0.502 | 1.76 | 0.845 | 1.96 | 0.948 | 1.26 | 0.883 | 1.21 | 1.15 | 1.55 | 0.746 | 2.76 | 2.51 | 0.882 |
| LLILEYAKYGS [RET_Y806_V804L] | 1.37 | 1.26 | 1.31 | 1.32 | 0.547 | 1.27 | 0.649 | 0.58 | 0.773 | 0.869 | 0.392 | 0.764 | 0.587 | 1.5 | 1.02 | 0.486 |
| LLQEWYMIISR [HUWE1_Y4066_R4063Q] | 1.08 | 1.09 | 0.623 | 2.05 | 1.04 | 2.39 | 0.921 | 0.821 | 2.11 | 2.45 | 1.1 | 1.25 | 0.766 | 3.08 | 1.81 | 1.1 |
| LLREWYLPDPF [SIX3_Y225_Q227P_YF] | 1.3 | 1.06 | 0.863 | 2.26 | 1.25 | 2.2 | 0.711 | 0.871 | 1.22 | 1.36 | 0.583 | 0.747 | 1.11 | 1.4 | 1.13 | 0.791 |
| LLSISYVGCSL [ADGRD1_Y571_S567L] | 0.96 | 0.571 | 0.54 | 1.48 | 1.1 | 2.03 | 0.823 | 1.01 | 0.888 | 1.43 | 0.761 | 0.69 | 0.98 | 1.77 | 1.45 | 0.824 |
| LMVFEYMRHGD [NTRK1_Y591] | 1.67 | 1.99 | 1.23 | 0.845 | 0.5 | 1.08 | 0.847 | 0.614 | 0.646 | 0.756 | 0.426 | 0.34 | 0.604 | 1 | 0.457 | 0.931 |
| LNWIFYKDQTG [RS1_Y166_YF] | 0.937 | 0.88 | 0.657 | 0.977 | 0.27 | 1.72 | 0.306 | 0.54 | 0.611 | 0.932 | 0.468 | 0.567 | 0.48 | 1.29 | 0.843 | 0.239 |
| LPEENYQVLRF [ARHGAP1_Y365] | 1.53 | 0.784 | 0.548 | 1.43 | 2.81 | 1.39 | 1.41 | 2.13 | 4.13 | 2.17 | 0.802 | 1.32 | 0.768 | 1.44 | 1.18 | 2.82 |
| LQLLGYRPVYS [CHST6_Y358] | 1.02 | 0.962 | 0.783 | 1.29 | 0.718 | 1.24 | 0.873 | 0.49 | 0.954 | 0.91 | 0.426 | 0.559 | 0.916 | 0.979 | 0.911 | 0.581 |
| LREKVYVSLEA [RXRA_Y397_A398V] | 0.774 | 0.94 | 1.06 | 0.64 | 0.837 | 0.794 | 0.501 | 0.44 | 0.456 | 0.737 | 0.568 | 1.36 | 1.36 | 0.723 | 0.542 | 0.61 |
| LRRREYQRQDF [PRKRIP1_Y90_YF] | 0.671 | 0.55 | 0.397 | 0.603 | 0.699 | 0.679 | 0.559 | 0.563 | 0.549 | 0.561 | 0.7 | 0.977 | 0.539 | 0.836 | 0.777 | 0.572 |
| LSCLAYSGKDA [FXN_Y205_S202C] | 0.719 | 0.626 | 0.537 | 1.23 | 0.495 | 1.44 | 0.643 | 0.525 | 0.844 | 0.976 | 0.558 | 0.665 | 0.52 | 1.24 | 1.15 | 0.527 |
| LSRDVYEEDSY [RET_Y900] | 0.652 | 0.726 | 0.978 | 1.39 | 0.656 | 1.39 | 0.685 | 0.416 | 0.535 | 0.968 | 0.699 | 0.719 | 0.503 | 1.55 | 0.906 | 0.771 |
| LSSLAYSGKDA [FXN_Y205] | 0.683 | 0.885 | 0.59 | 0.859 | 0.66 | 0.703 | 0.702 | 0.615 | 0.819 | 0.671 | 0.307 | 0.47 | 0.809 | 0.75 | 0.85 | 0.579 |
| LSVEIYDRREF [ITGB7_Y753_YF] | 0.985 | 0.648 | 0.542 | 1.26 | 0.498 | 1.25 | 0.483 | 0.595 | 0.428 | 0.824 | 0.522 | 1.01 | 0.946 | 0.958 | 0.569 | 2.83 |

| Sequence | SH2 binding enrichment (Grb2 SH2) | SH2 binding enrichment (SHP2-C SH2) | SH2 binding enrichment (c-Src SH2) | phosphorylation enrichment (AncSZ) | phosphorylation enrichment (FGFR1) | phosphorylation enrichment (Fes) | phosphorylation enrichment (EPHB2) | phosphorylation enrichment (Fer (mouse)) | phosphorylation enrichment (EPHB1) | phosphorylation enrichment (FGFR3) | phosphorylation enrichment (MERTK) | phosphorylation enrichment (c-Src) | phosphorylation enrichment (Fyn) | phosphorylation enrichment (Jak2) | phosphorylation enrichment (c-Abl (mouse)) | phosphorylation enrichment (Hck) |
| --- | --- | --- | --- | --- | --- | --- | --- | --- | --- | --- | --- | --- | --- | --- | --- | --- |
| LTFDEYRNISQ [ANXA3_Y216] | 2.68 | 0.585 | 0.49 | 1.82 | 1.23 | 1.93 | 0.782 | 1.08 | 1.01 | 1.49 | 0.498 | 0.643 | 0.854 | 1.58 | 1.13 | 1.08 |
| LTMAPYSSVSV [FAM81A_Y24_L29V] | 0.783 | 3.6 | 3.26 | 1.05 | 0.653 | 1.08 | 0.531 | 9.11 | 0.683 | 0.899 | 0.527 | 1.07 | 0.575 | 0.933 | 0.811 | 0.724 |
| LTRDIYKNDFF [ROS1_Y2110_A2106T_YF] | 1.48 | 0.731 | 0.395 | 0.974 | 1.05 | 1.07 | 0.495 | 0.937 | 0.683 | 0.963 | 0.723 | 0.475 | 0.836 | 0.79 | 0.673 | 0.717 |
| LTTEAYEWEPR [ELMOD3_Y61] | 0.744 | 0.64 | 0.823 | 1.69 | 1.08 | 1.89 | 1.24 | 1.07 | 1.11 | 1.06 | 0.724 | 1.31 | 1.1 | 1.16 | 0.831 | 0.943 |
| LTYHMYADPNF [SOS1_Y618] | 0.955 | 1.28 | 6.8 | 2.15 | 4.45 | 1.88 | 6.29 | 1.09 | 4.48 | 3.01 | 5.2 | 8.75 | 6.26 | 2.66 | 7.02 | 4.13 |
| LVLIKYLPEWT [PSEN1_Y240_F237L] | 2.06 | 1.99 | 1.21 | 1.19 | 0.547 | 1.43 | 0.611 | 0.597 | 0.827 | 1.08 | 0.56 | 0.463 | 0.501 | 1.44 | 1.07 | 0.569 |
| LVMFIDAIFGM [SCN1A_Y1684_Y1684D] | 1.15 | 1.15 | 0.698 | 2.28 | 1.07 | 3.65 | 1.67 | 1.63 | 2 | 2.33 | 1.1 | 0.91 | 1.13 | 1.79 | 1.74 | 1.38 |
| LVMFIYVIFGM [SCN1A_Y1684_A1685V] | 2.05 | 1.49 | 1.1 | 0.694 | 0.583 | 0.673 | 0.615 | 0.366 | 0.496 | 0.604 | 0.365 | 0.275 | 0.517 | 0.477 | 0.468 | 0.571 |
| LYIDSYEKDVA [PGM1_Y521] | 0.86 | 0.589 | 0.817 | 1.81 | 0.895 | 1.5 | 1.15 | 0.798 | 0.816 | 1.14 | 0.717 | 0.69 | 0.77 | 1.24 | 0.45 | 0.659 |
| LYNQDYPIHCV [GATM_Y227_S231C] | 0.902 | 0.689 | 0.638 | 0.811 | 2.66 | 0.954 | 0.592 | 0.632 | 0.614 | 1.64 | 0.463 | 0.558 | 0.639 | 0.754 | 0.625 | 0.767 |
| MAFDRYAAICS [OR8H2_Y123_H120Y_YF] | 0.853 | 0.881 | 1.93 | 1.15 | 0.548 | 1.3 | 0.998 | 0.597 | 0.893 | 0.641 | 0.889 | 0.576 | 0.479 | 1.2 | 0.95 | 0.76 |
| MAFDRYVAVCA [OR52J3_Y125] | 0.746 | 0.647 | 0.663 | 0.845 | 0.519 | 1.08 | 0.7 | 0.468 | 0.649 | 0.582 | 0.522 | 0.458 | 0.438 | 0.995 | 0.779 | 0.537 |
| MCDKEYYSVHN [MET_Y1234_Y1230C] | 1.13 | 0.908 | 1.16 | 1.79 | 5.1 | 0.862 | 0.865 | 0.594 | 0.625 | 3.33 | 0.478 | 1.02 | 0.684 | 1.31 | 0.566 | 0.734 |
| MDDDQYALLTT [EFCAB6_Y675] | 0.841 | 0.544 | 0.695 | 1.39 | 1.1 | 1.26 | 0.785 | 0.736 | 0.677 | 1.18 | 0.632 | 0.64 | 0.64 | 0.996 | 0.732 | 0.956 |
| MDYRSYPREYG [RBM10_Y44] | 0.752 | 0.591 | 0.476 | 0.621 | 0.404 | 0.626 | 0.402 | 0.331 | 0.337 | 0.684 | 0.296 | 0.319 | 0.366 | 0.515 | 0.472 | 0.41 |
| MGGSVYFSFPD [HIKESHI_Y55_YF] | 0.892 | 0.908 | 0.662 | 1.55 | 3.19 | 1.32 | 0.991 | 0.55 | 1.09 | 2.85 | 3.89 | 5.05 | 4.01 | 1.94 | 1.12 | 2.64 |
